# Source: IntAct's records for PubMed 19264842
# Molecular target: T1, plcg1_human PLCG1 (UniProt P19174)
# T1 sequence: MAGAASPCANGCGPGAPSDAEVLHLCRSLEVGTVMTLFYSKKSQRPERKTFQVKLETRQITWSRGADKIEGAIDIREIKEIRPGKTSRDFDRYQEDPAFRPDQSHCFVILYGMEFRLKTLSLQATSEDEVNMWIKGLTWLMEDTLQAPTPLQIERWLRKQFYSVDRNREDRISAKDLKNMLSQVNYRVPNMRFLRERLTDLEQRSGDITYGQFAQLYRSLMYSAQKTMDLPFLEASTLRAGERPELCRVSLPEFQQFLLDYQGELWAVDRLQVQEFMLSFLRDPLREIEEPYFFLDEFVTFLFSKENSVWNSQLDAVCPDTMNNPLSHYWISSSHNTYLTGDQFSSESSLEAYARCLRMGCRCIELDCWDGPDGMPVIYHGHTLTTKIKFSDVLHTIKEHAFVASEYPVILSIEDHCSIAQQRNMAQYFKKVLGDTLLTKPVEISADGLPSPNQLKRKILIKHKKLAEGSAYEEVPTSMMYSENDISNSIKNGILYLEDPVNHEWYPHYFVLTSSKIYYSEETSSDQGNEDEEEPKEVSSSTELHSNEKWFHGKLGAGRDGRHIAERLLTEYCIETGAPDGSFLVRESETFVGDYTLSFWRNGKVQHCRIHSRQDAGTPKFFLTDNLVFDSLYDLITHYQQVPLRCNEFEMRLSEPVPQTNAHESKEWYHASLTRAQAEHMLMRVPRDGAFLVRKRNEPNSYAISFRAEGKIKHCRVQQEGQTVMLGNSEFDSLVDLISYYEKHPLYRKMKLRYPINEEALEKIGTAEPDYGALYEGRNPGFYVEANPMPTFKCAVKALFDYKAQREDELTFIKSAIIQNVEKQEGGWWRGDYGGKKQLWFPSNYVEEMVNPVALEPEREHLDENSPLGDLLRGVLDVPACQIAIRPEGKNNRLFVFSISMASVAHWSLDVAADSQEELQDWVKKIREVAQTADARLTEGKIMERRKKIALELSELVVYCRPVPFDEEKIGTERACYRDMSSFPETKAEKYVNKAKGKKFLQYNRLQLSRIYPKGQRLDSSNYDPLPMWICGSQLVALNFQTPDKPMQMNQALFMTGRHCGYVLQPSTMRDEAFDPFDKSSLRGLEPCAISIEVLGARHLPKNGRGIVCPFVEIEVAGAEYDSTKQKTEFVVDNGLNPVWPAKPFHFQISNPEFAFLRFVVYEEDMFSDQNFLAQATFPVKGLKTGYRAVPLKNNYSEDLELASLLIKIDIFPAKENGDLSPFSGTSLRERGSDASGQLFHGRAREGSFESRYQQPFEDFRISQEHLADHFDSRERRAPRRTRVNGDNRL
row,Substance,effect of a mutation on the interaction
1,Ras-related C3 botulinum toxin substrate 1 (Homo sapiens) (from UniProt P63000) P106A,disrupting interaction
2,Ras-related C3 botulinum toxin substrate 1 (Homo sapiens) (from UniProt P63000) P109A,disrupting interaction
